Source: publication PMC9436414

Key:
Assay in all cases: purified protein
[1] = substrate: N[C@@H](CO)C(=O)O; conditions: 7 mM oxaloacetate as acceptor, 50 mM HEPES/KOH pH 7.5, 37 °C, pH 7.5
[2] = substrate: O=C(O)CC(=O)C(=O)O; conditions: 100 mM serine as amine donor, 50 mM HEPES/KOH pH 7.5, 37 °C, pH 7.5
[3] = substrate: C[C@@H](N)C(=O)O; conditions: 200 mM HEPES/KOH pH 7.5, 0.1 mM DCPIP, 1.5 mM PES, 10 mM KCN, 37 °C, pH 7.5
[4] = substrate: N[C@H](CO)C(=O)O; conditions: DCPIP-coupled assay, 37 °C, exact D-serine reaction mix not stated

B1: BhcA (Paracoccus denitrificans PD1222) (protein)
chain: MTSQNPIFIPGPTNIPEEMRKAVDMPTIDHRSPVFGRMLHPALEGVKKVLKTTQAQVFLFPSTGTGGWETAITNTLSPGDKVLAARNGMFSHRWIDMCQRHGLDVTFVETPWGEGVPADRFEEILTADKGHEIRVVLATHNETATGVKSDIAAVRRALDAAKHPALLFVDGVSSIGSMDFRMDEWGVDIAVTGSQKGFMLPPGLAIVGFSPKAMEAVETARLPRTFFDIRDMATGYARNGYPYTPPVGLINGLNASCERILAEGLENVFARHHRIASGVRAAVDAWGLKLCAVRPELYSDSVSAIRVPEGFDANLIVSHALETYDMAFGTGLGQVAGKVFRIGHLGSLTDAMALSGIATAEMVMADLGLPIQLGSGVAAAQEHYRQTTAAAQKKAA
Km [1]: 7 mM | kcat [1]: 25.9 s⁻¹ | Km [2]: 0.23 ± 0.03 mM | kcat [2]: 31.2 s⁻¹ | kcat/Km [2]: 140000 M⁻¹ s⁻¹

B2: DadA (Escherichia coli K-12) (protein)
chain: MRVVILGSGVVGVASAWYLNQAGHEVTVIDREPGAALETSAANAGQISPGYAAPWAAPGVPLKAIKWMFQRHAPLAVRLDGTQFQLKWMWQMLRNCDTSHYMENKGRMVRLAEYSRDCLKALRAETNIQYEGRQGGTLQLFRTEQQYENATRDIAVLEDAGVPYQLLESSRLAEVEPALAEVAHKLTGGLQLPNDETGDCQLFTQNLARMAEQAGVKFRFNTPVDQLLCDGEQIYGVKCGDEVIKADAYVMAFGSYSTAMLKGIVDIPVYPLKGYSLTIPIAQEDGAPVSTILDETYKIAITRFDNRIRVGGMAEIVGFNTELLQPRRETLEMVVRDLYPRGGHVEQATFWTGLRPMTPDGTPVVGRTRFKNLWLNTGHGTLGWTMACGSGQLLSDLLSGRTPAIPYEDLSVARYSRGFTPSRPGHLHGAHS
Km [3]: 1.26 ± 0.26 mM | kcat [3]: 0.81 s⁻¹ | kcat/Km [3]: 642 M⁻¹ s⁻¹ | Km [4]: 64.77 ± 9.28 mM | kcat [4]: 0.37 s⁻¹ | kcat/Km [4]: 5.71 M⁻¹ s⁻¹
